The results in this text go back to patent publication EP1644414B1.

The experiment has as its target UV-inactivated SARS-CoV preparation (Frankfurt 1 strain) (SARS-CoV strain Frankfurt 1). The experiment can be described thus: phage ELISA, plate 2 (no phage 0.211). In general terms: ELISA stands for enzyme-linked immunosorbent assay.

B1: SC03-026 (scFv)
scFv: AMAQVQLVQSGGGLVQPGGSLRLSCAASGFTFSSYAMHWVRQAPGKGLEYVSGISSNGGSTYYANSVKGRFTISRDNSKNTLYLQMGSLRAEDMAVYYCARTTNRAFDIWGQGTMVTVSSGTGGSGGTGSGTGGSTDIQMTQSPDSLAVSLGERATINCKSSQSILYSSNSKNYLGWYQQKPGQPPKLLIYWASTRESGVPDRFSGSGSGTDFTLTISSLQAEDVAVYYCQQYYSTPYSFGQGTKVEIKRAA
Molecule B1 showed an OD492nm of 1.07 OD492nm.

B2: SC03-025 (scFv)
scFv: AMAEVQLVESGGGLVQPGGSLRLSCAASGFTFSSYAMHWVRQAPGKGLEYVSGISSNGGSTYYANSVKGRFTISRDNSKNTLYLQMGSLRAEDMAVYYCARTTNRAFDIWGQGTMVTVSSGTGGSGGTGSGTGGSTDIQLTQSPDSLAVSLGERATINCKSSQSVLYSSNNKNYLAWYQQKPGQPPKLLIYWASIRESGVPDRFSGSGSGTDFTLTISSLQAEDVAVYYCQQYYNIPYAFGQGTKLEIKRAA
Turning to B2, the OD492nm is 1.64 OD492nm.
